This data set in a line: BS3 cross-linking, non-reducing SDS-PAGE, anti-Flag blot. The following applies: glycan changed form; control: K562/ADR cells (low GnT-III).

B1: TNF receptor 2 (TNFR2): GnT-III overexpression (protein)
parent chain: MAPVAVWAALAVGLELWAAAHALPAQVAFTPYAPEPGSTCRLREYYDQTAQMCCSKCSPGQHAKVFCTKTSDTVCDSCEDSTYTQLWNWVPECLSCGSRCSSDQVETQACTREQNRICTCRPGWYCALSKQEGCRLCAPLRKCRPGFGVARPGTETSDVVCKPCAPGTFSNTTSSTDICRPHQICNVVAIPGNASMDAVCTSTSPTRSMAPGAVHLPQPVSTRSQHTQPTPEPSTAPSTSFLLPMGPSPPAEGSTGDFALPVGLIVGVTALGLLIIGVVNCVIMTQVKKKPLCLQREAKVPHLPADKARGTQGPEQQHLLITAPSSSSSSLESSASALDRRAPTRNQPQAPGVEASGAGEARASTGSSDSSPGGHGTQVNVTCIVNVCSSSDHSSQCSSQASSTMGDTDSSPSESPKDEQVPFSKEECAFRSQLETPETLLGSTEEKPLPLGVPDAGMKPS
As to B1, the oligomerisation entry is given as “decreases”.

The record behind these values is PMC10033316.
